The source of these data is publication PMC9100253 (International Journal of Molecular Sciences, 2022).

Data set [1] deals with T1, CTX-M-15 (Escherichia coli, UniProt A0A5R8T042, S73A).
T1 construct: gene bla
The data set can be described thus: biochemical.

For data set [2], the system named is CC1(C)S[C@@H]2[C@H](NC(=O)[C@H](N)c3ccccc3)C(=O)N2[C@H]1C(=O)O. The experiment in a line: purified protein. The class given is biochemical, Escherichia coli. To be noted: PBS pH 7.4, 10 nM enzyme, acyl-enzyme structure, covalent.
The test system of data set [3] is CO/N=C(\C(=O)N[C@@H]1C(=O)N2C(C(=O)O)=C(CS)CS[C@H]12)c1csc(N)n1. The experiment in a line: purified protein. The class given is biochemical, Escherichia coli. The settings on record: PBS pH 7.4, 10 nM enzyme, acyl-enzyme structure, covalent.
The subject of data set [4] is CO/N=C(\C(=O)N[C@@H]1C(=O)N2C(C(=O)O)=C(CSC(=O)c3ccco3)CS[C@H]12)c1csc(N)n1. The data set can be described thus: purified protein. The data set is classed as biochemical, Escherichia coli. To be noted: PBS pH 7.4, 10 nM enzyme.
The test system of data set [5] is O=C(Cc1cccs1)N[C@@H]1C(=O)N2C(C(=O)O)=C(/C=C/c3ccc([N+](=O)[O-])cc3[N+](=O)[O-])CS[C@H]12. The experiment in a line: purified protein. The settings on record: PBS pH 7.4, 10 nM enzyme. The class given is biochemical, Escherichia coli.
Data set [6] addresses T2, CTX-M-15 (Escherichia coli, UniProt A0A5R8T042).
T2 construct: gene bla; blaCTX-M-15 in pET200 TOPO, E. coli BL21(DE3); DEAE and hydroxyapatite purification; three molecules per asymmetric unit
The experiment in a line: inhibition of ceftiofur hydrolysis, absorbance. The class given is biochemical.

`CC1(C)S[C@@H]2[C@H](NC(=O)[C@H](N)c3ccccc3)C(=O)N2[C@H]1C(=O)O` [ampicillin] showed a Kd on CTX-M-15 [1] of 28.8 µM.
In turn, `O=C(Cc1cccs1)N[C@@H]1C(=O)N2C(C(=O)O)=C(/C=C/c3ccc([N+](=O)[O-])cc3[N+](=O)[O-])CS[C@H]12` [nitrocefin] displayed a Kd on CTX-M-15 [1] of 71.3 µM.
The same measure, in the same setting: with `CO/N=C(\C(=O)N[C@@H]1C(=O)N2C(C(=O)O)=C(CS)CS[C@H]12)c1csc(N)n1` [desfuroylceftiofur] the figure was 10.7 µM.
For CTX-M-15 (Escherichia coli O25b:H4), in data set [2], the Km is 197.8 ± 13.0 µM, the Vmax came out at 60.6 µmol/min, the kcat was found to be 102 ± 5.6 s⁻¹ and the kcat/Km turned out to be 520000 ± 10000 M⁻¹ s⁻¹. In data set [3], the Km worked out at 141.2 ± 11.2 µM, the Vmax turned out to be 293 µmol/min, the kcat stood at 490 ± 16.2 s⁻¹ and the kcat/Km stood at 3.46e+06 ± 140000 M⁻¹ s⁻¹. Further, in data set [4], the Km worked out at 330.0 ± 14.1 µM, the Vmax is 188 µmol/min, the kcat worked out at 314 ± 13 s⁻¹ and the kcat/Km turned out to be 950000 ± 10000 M⁻¹ s⁻¹. In addition, in data set [5], the Km is 1047.0 ± 75.8 µM and the Vmax was found to be 203 µmol/min.
In turn, `O=C(O)[C@H]1/C(=C/CO)O[C@@H]2CC(=O)N21` [clavulanic acid] showed a Ki at CTX-M-15 [6] of 0.022 ± 0.007 µM. At CTX-M-15 [1], the Kd came out at 289 µM.
`CO/N=C(\C(=O)N[C@@H]1C(=O)N2C(C(=O)O)=C(CSC(=O)c3ccco3)CS[C@H]12)c1csc(N)n1` [ceftiofur] showed a Kd on CTX-M-15 [1] of 38.2 µM.
